From patent publication US20160251438A1 (LUDWIG INSTITUTE FOR CANCER RESEARCH, published 2016)

Key:
[1] = biological target: T1, mGARP/hTGF-β1 complex on the cell surface (mouse; human, UniProt G3XA59 18-663); assay: FACS, 293T, HA-tagged mouse GARP + hTGFB1
T1 construct: whole, on cells; also called cells transfected with hTGFB1 and mGARP

[2] = biological target: GARP / TGF-β1 E100A complex (human, UniProt Q14392 20-662; P01137 30-390); assay: flow cytometry on transfected 293T cells, 5 ug/ml; grade of Loss of binding read by footnote 2
Source text: Resolution of the crystal structure of MHG-8 Fab/GARP/TGF-β1 complexes and analysis with the CONTACT software allowed the identification of 22 amino-acids in GARP, 8 amino-acids in LAP and 6 amino-acids in mature TGF-β1 that are located less than 5 Å away from an amino-acid of the light or heavy chain of the MHG-8 Fab (Tables 7a, b and c, and Table 8). Directed mutagenesis was used to construct plasmids encoding HA-tagged forms of GARP or TGF-β1 that are mutated at one, two, or three of these 36 positions (all mutations constructed are indicated in Table 8). […] Antibodies were used at a saturating concentration of 5 μg/ml for labeling. Binding of each antibody to a given mutant GARP/TGF-β1 complex was compared to their binding to wild type (WT) complexes, by determining an I_{m/wt} value (i.e. intensity of binding to mutant by comparison to WT). This value was calculated as follows: I_{m/wt} of antibody X=[Geom on mutant−Geom on control]/[Geom on WT−Geom on control]
The level of residual binding of anti-GARP or anti-LAP antibodies to each mutant was then calculated by comparison to WT, taking into account the expression levels of mutant and WT forms as measured with anti-HA antibodies. Residual binding was calculated as follows: Residual binding by an anti-GARP or anti-LAP antibody=[I_{m/wt} with anti-GARP or anti-LAP antibody]/[I_{m/wt} with anti-HA antibody]

Chain of GARP / TGF-β1 E100A complex (Q14392 20-662 limits assumed, stated change not applied, chain 1 of 2): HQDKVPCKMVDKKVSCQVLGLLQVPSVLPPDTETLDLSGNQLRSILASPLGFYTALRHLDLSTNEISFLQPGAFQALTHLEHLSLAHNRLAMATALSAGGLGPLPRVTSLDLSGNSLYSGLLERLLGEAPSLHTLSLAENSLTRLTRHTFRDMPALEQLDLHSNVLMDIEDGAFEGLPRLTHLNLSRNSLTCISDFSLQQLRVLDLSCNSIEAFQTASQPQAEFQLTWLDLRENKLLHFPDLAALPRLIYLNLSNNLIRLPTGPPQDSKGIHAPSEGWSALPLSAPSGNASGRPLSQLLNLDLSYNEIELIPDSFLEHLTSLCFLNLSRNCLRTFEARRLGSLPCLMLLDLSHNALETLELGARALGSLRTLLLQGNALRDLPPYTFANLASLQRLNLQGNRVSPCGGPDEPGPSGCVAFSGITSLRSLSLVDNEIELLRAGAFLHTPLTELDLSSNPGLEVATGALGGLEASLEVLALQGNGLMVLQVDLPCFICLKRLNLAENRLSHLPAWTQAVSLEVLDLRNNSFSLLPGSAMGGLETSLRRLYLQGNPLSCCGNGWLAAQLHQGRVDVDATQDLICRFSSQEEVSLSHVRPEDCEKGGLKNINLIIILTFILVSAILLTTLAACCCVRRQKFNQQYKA
Chain of GARP / TGF-β1 E100A complex (P01137 30-390 E100A limits assumed, chain 2 of 2): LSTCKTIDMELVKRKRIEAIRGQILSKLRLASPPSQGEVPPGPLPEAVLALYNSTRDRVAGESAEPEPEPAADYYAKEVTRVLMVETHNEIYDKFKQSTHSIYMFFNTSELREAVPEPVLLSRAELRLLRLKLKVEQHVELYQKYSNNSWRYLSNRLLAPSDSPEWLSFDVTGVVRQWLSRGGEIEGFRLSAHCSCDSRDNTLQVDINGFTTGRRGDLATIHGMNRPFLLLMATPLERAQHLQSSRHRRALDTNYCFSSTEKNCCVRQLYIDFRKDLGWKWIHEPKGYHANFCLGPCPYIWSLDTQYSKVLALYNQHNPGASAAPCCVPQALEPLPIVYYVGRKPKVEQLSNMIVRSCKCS
T1 sequence (G3XA59 18-663, chain 1 of 2): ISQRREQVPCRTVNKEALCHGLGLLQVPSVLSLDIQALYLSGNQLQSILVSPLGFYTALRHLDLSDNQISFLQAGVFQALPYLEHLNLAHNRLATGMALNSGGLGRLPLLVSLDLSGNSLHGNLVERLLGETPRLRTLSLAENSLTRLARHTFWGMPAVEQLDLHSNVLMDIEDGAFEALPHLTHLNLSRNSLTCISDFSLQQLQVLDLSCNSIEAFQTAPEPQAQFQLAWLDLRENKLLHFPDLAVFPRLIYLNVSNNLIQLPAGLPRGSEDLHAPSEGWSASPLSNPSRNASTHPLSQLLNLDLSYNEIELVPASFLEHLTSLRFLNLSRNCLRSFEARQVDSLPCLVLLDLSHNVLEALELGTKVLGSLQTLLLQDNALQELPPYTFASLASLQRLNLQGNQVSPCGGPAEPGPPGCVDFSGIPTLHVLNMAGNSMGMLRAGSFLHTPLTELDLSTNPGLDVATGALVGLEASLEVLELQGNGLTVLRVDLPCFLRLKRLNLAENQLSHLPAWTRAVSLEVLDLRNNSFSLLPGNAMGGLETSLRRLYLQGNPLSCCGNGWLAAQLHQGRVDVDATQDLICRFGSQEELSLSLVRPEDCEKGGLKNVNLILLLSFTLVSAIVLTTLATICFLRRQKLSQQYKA
T1 sequence (chain, as listed by the source, chain 2 of 2): as the sequence (P01137 30-390 E100A limits assumed, chain 2 of 2) above, with A71E counted along it

binding result [1]: no binding | residual binding on mutant by comparison to WT [2]: ≥ 50%
B1: LHG-10 (antibody, human IgG1, V domains shown)
VH: EVQLVQPGAELRNSGASVKVSCKASGYRFTSYYIDWVRQAPGQGLEWMGRIDPEDGGTKYAQKFQGRVTFTADTSTSTAYVELSSLRSEDTAVYYCARNEWETVVVGDLMYEYEYWGQGTQVTVSS
VL: DIQMTQSPTSLSASLGDRVTITCQASQSISSYLAWYQQKPGQAPKLLIYGASRLQTGVPSRFSGSGSGTSFTLTISGLEAEDAGTYYCQQYDSLPVTFGQGTKVELK
notes: llama-derived V regions in a full human IgG1
